The nanobody polyreactivity screen of Harvey et al. (2022)

Assay: yeast display, Sf9 membrane polyspecificity reagent, FACS + sequencing; frameworks hold sequencing errors
In short: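 After 36–48 hours of galactose induction, yeast (Saccharomyces cerevisiae BJ5465) displaying a synthetic nanobody library were stained at 4 °C for 1 hour with 10% biotinylated, detergent-solubilized Sf9 membrane reagent. Streptavidin microbeads enriched the stained cells before FACS sorting into low and high (top ~1%) gates on anti-HA and streptavidin fluorescence. Each clone's polyreactivity label reflects its gate of origin.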

Sequence	polyreactivity (PSR sort gate)
QVQHVESGGGLVQAGGSLRLSCAASGRIFVAYTMGWYRQAPGKERELVAGISRSGGSTYYADSVKGRFTISRDNAKNTVYLQMNNLKPEDTAVYYCAVGNWRLFPYGYWGQGTQVTVSS	high polyreactivity
QVQHVESGGGLVQAGGSLRLSCAASGRIFYLNAMGWYRQAPGKERELVAAISRVGRTNYADSVKGRFTISRDNAKNTVYLQMNSLKPEDTAVYYCAAVYYSVNGRHGYWGQGTQVTVSS	high polyreactivity
QVQHVESGGGLVQAGGSLRLSCAASGRIIRRNARGSYRLAPGKERELVAAISWSGGSTYYADSVKGRFTISRDNAKNSVDLQMNSLKQEDTAVYYCAAVPCYTGDYWGQGTQVTVSS	low polyreactivity
QVQHVESGGGLVQAGGSLRLSCAASGRIYRKAMGWYRQAPGKERELVAVITRGGSTNYADSVKGRFTISRDNAKNSVYLQMNSLKPEDTAVYYCAATYSYRFSSFDYWGQGTQVTVSS	high polyreactivity
QVQHVESGGGLVQAGGSLRLSCAASGRTFAQYTMGWYRQAPGKERELVAGIDWSGGNTYYADSVKGRFTISRDNAKNTVYLQMNSLKPVDTAVYYCAAVPAFYNAWGEDYEYWGQGTQVTVSS	low polyreactivity
QVQHVESGGGLVQAGGSLRLSCAASGRTFGSNAMGWYRQAPGKERELVAAISLRGGRTYYADSVKGRFTISRDNAKNTVYLLMNSLKPEDTAVYYCNAVHYLYGARSRLTYDYWGQGTQVTVSS	high polyreactivity
QVQHVESGGGLVQAGGSLRLSCAASGRTFPPYDMGWYRQAPGKERELVAAITSDGSTSYADSVKGRFTISRDNAKNTVYLQMNSLKPEDTAVYYCAAYRWYSAARMGYWGQGTQVTVSS	high polyreactivity
QVQHVESGGGLVQAGGSLRLSCAASGRTFRLYAMGRYRMAPGKERELVAAITRGGRTNYADSVKGRFTISRDNAKNTVYLQMNSLKPEDTAVYYCAVAGFDRGQYVRYYYWGQGTQVTVSS	low polyreactivity
QVQHVESGGGLVQAGGSLRLSCAASGRTIIKYAMGWYRQAPGKERELVAAISRSAGSTYYADSVKGRFTISRDNAKNTVYLQMNSLKPEDTAVYYCNAVTSSYLRFDYWGQGTQVTVSS	high polyreactivity
QVQHVESGGGLVQAGGSLRLSCAASGRTITNYVMGWYRQSPGKEREFVATITARGGSTNYADSVKGRFTISRDNAKNTVYLQMNSLKPEDTAVYYCAAGRRFTVAYGYFYWGQGTQVTVSS	high polyreactivity
QVQHVESGGGLVQAGGSLRLSCAASGRTTYTNARGWYRQAPGKERELVASISWRGGSSYYADSVKGRFTISRDNAKNTVYLQMNSLIPEDTAVYYCAASWPRWWRFGYWGQGTQVTVSS	low polyreactivity
QVQHVESGGGLVQAGGSLRLSCAASGRTYGYYAMGWYRQAPGKERELVAAITRTGGSTHYADSVKGRFTISRDNAKNTVYLQMNSLKPEDTAVYYFARTSRHVRYDYWGEGTQVTVSS	low polyreactivity
QVQHVESGGGLVQAGGSLRLSCAASGSIFLVYAMGWYRLAPGKERELVAAISNSGSTNYADSVKGRFTISRDNAKNTVYLQMNSLKPEDTAVYYCAKDSLVDHVGGYDYWGHGTQVTVSS	low polyreactivity
QVQHVESGGGLVQAGGSLRLSCAASGSIFQKNAMGWYRKAPGKERELVAVITRGGTSTYYADSVKGRFTISRDNAKNTVYLQMNSLKPEDTAVYYCAAKADKRLDYWGQGTQVTVSS	low polyreactivity
QVQHVESGGGLVQAGGSLRLSCAASGSIFSHYAMGWYRQEPGKERELVATITWRGGSNTNYADSVKGRFTISRDNAKNTVYLQMNSLKPEDTAVYYCNAAFPYHYRFDYWGQGTQVTVSS	low polyreactivity
QVQHVESGGGLVQAGGSLRLSCAASGSIFTVNAMGWYRQAPGKERELVAAIDGSSGSTNYADSVKGRFTISRDNAKNTVYLQMNSLKPEDTAVYYCAADWSYEYGYWGQGTQVTVSS	low polyreactivity
QVQHVESGGGLVQAGGSLRLSCAASGSIFVPYALGWSRQAPGKEREFVAVISLRGSRTYYADSVKGRFTISRDNAKNTVYLQMNSLKPEDTAVYYCATTGYRLRQATRYDYRGQGTQVTVSS	high polyreactivity
QVQHVESGGGLVQAGGSLRLSCAASGSIFWYYAKGWYRQAPGKERELVATITSGGSTSYADSVKGRFTISRDNAKNPVYLQMNSLKPEDTAVYYCAAARLFTTYDWGQGTQVTVSS	low polyreactivity
QVQHVESGGGLVQAGGSLRLSCAASGSIFYDYAMGWYRQAPGKERELVAAISKSDGSTYYADSVKGRFTISRDNAKNTVYLQMNSLKPEDTAVYYCNADLIYSYPPEYDYWGQGTQVTVSS	high polyreactivity
QVQHVESGGGLVQAGGSLRLSCAASGSISPQNVMGWYRQAPGKERELVAAITGGGYTNYADSVKGRFTISRDNANNTVYLQMNSLKPEDTAVYYCNADYFQDRLDYWGQGTQVTVSS	low polyreactivity
QVQHVESGGGLVQAGGSLRLSCAASGSNSAYAMGWYRQAPGKERELVAAINSGGSTTYADSVKGRFTISRDNAKNTVYLQMNSLKPEDTAVYSCAARAPSFRYGTSNYPAYRLDYWGQGTQVTVSS	high polyreactivity
QVQHVESGGGLVQAGGSLRLSCAASGSTFDGYAMGWYRQAPGKERELVAAISRSGGRTYYADSVKGRFTISRDNAKNTVYLQMTSLKPEDTAVYYCAALYPYKREDYWGQGTQVTVSS	high polyreactivity

Sequence	polyreactivity (PSR sort gate)
QVQHVESGGGLVQAGGSLRLSCAASGSTFDRYAMGWNRQAPGKERELVAAISGGGGSTYYADSVKGRFTISRDNAKNTVYLQMNSLKPEDTAVYYCAKLLARGNRYDSWGQGTQLTVSS	high polyreactivity
QVQHVESGGGLVQAGGSLRLSCAASGSTFDYYAMGWYRQAPGKERELVAAISDSARSTFYADSVKGRFTISRDNAKNTVYLQMNSLKPEDTAVYYCAAYFWSYWRSEGYSWGQGTKVTVSS	high polyreactivity
QVQHVESGGGLVQAGGSLRLSCAASGSTFGYNDMGRYRQAPGKERELVAAIDTGVSTNYADSVKGRFTISRDNAKNTVYLQMNSLKPEDTAVYYCAKSGSAYWHSGWSVGFDYWGQGTQVTVSS	low polyreactivity
QVQHVESGGGLVQAGGSLRLSCAASGSTFPTYAMGWYRQAPGKERELVADITWSGGSTYYADSVKGRFTISRDNAKNTVYLQMNSLKPEDTAVYYCNAAHRKGMYYWGQGTQVTVSS	high polyreactivity
QVQHVESGGGLVQAGGSLRLSCAASGSTFSYYAMGWSRQAPGKERELVAAISGSGASTYYADSVKGRFTISRDNAKNTVYLQMNSLKPEDTAVYYCAKYYVREHYDYWGQGTQVTVSS	low polyreactivity
QVQHVESGGGLVQAGGSLRLSCAASGSTFTGYTMGWYRQAPGKERELVASIRTYYADSVKGRFTISRDNAKNTVYLQMNSLKPEDTAVYYCAADFPSATGGYDYWGQGTQVTVSS	low polyreactivity
QVQHVESGGGLVQAGGSLRLSCAASGSTFTSYALGWYRQAPGKERELVAAISKSGGSTYYADSVKGRFTISRDNAKNTVYLQMNSLKPEDTSVYYCAASYNVRSYSTSRFDYWGQGTQVTVSS	low polyreactivity
QVQHVESGGGLVQAGGSLRLSCAASGSTFTWYTMGWYRQAPGKERELVATIRKRGGSTYYADSVKGRFTISRDNAKNTVYLQMNSLKPEDTAVYYCAAVYKVHSGLYEYWGQGTQVTVSS	high polyreactivity
QVQHVESGGGLVQAGGSLRLSCAASGSTFVQNAMGWYRQAPGKERELVAAISRSGGRTYYAYSVKGRFTISRDNAKNTVYLQMNSLKPEDTAVYYCAARYPVRPDDGYWGKGTQVTVSS	high polyreactivity
QVQHVESGGGLVQAGGSLRLSCAASGSTFWFNAMGWYRQATGKVRELVAAITSGSTYYADSVKGRFTISRDNAKNTVYLPMNSLQPEYTAVYYCASTEFTFYYSYDYWAQGTQVTVSS	low polyreactivity
QVQHVESGGGLVQAGGSLRLSCAASGSTFWGYAMGWYRQAPGKERELVAAINWIGGSDTFYADSVKGRFTISRDNAKNTVYLQMNSLKPEDTAVYYCAATYYNLPYSWGYDSWGQGSQVTVSS	low polyreactivity
QVQHVESGGGLVQAGGSLRLSCAASGSTFYGYAMGWYRQAPGKERELVARISSSSGRTYYADSVKGRFTISRDNAKNTVYLQMNSLKPEDTAVFYCAARFLWSVFGRKGGYWGQGTQVTVSS	low polyreactivity
QVQHVESGGGLVQAGGSLRLSCAASGSTLGGYVMGWYRQAPGKERELVASITYSGGSTRYADSVKGRFTISRDNAKNTVYLQMNSLKPEDTAVYYCAAGAQRTYYTYSFRRVGYDYDYWGQGTQVTVSS	low polyreactivity
QVQHVESGGGLVQAGGSLRLSCAASGSTSGKYAMGWYRQAPGKERELVAGITKGGGGTYYADSVKGRFTISRDNAKNTVYLQLNSLKPEVTAVYYCAKYYGSGYYIYDYWGQGTQVTVSS	low polyreactivity
QVQHVESGGGLVQAGGSLRLSCAASGTTFYSYAMGWYRQAPGKERELVAAISWRTSSTYYADSVKGRFTISRDNAKNTVYLQMNSLKPEDTAVYYCAAETWLGSWRQVGMDYWGQGTQVTVSS	high polyreactivity
QVQHVESGGGLVQAGGSLRLSCAASGYTFGGNAMGWYRQAPGKERELVAAISSGGSTNYADSVKGRFTISRDNAKNTVYLQMNSLKPEDTAVYYCNKRGYYYWSGQDVASYDYWGQGTQLTVSS	low polyreactivity
QVQHVESGGGLVQAGGSLRLSCAASGYTFRYYAMGWYRQAPGKERELVARINRSGGSTYYADSVKGRFTISRDYAKYTVYLQMNSLKPEDTAVYYCNRDYGWHYSYDYWGQGTQVTVSS	high polyreactivity
QVQHVESGGGLVQAGGSLRLSCAASVLIFYIYAMGWYRQAPGKERELVAAITTGGRTNYADSVKGRFTISRDNAKNTVYLQMKSLKPEDTEVYYCAKDFPIWISHGPDTDNDYGGQGTQVTVSS	low polyreactivity
QVQHVESGGGLVQAGGSLRLSCADSGSTLRGNAMGWYRQAPGKEREMVAAISIGSRTNYADSVKGRFTISRDNAKNTDYLQMNSLKPEDTAVYYCAKDISLRVRGPYYFGFDYWGQGTQVTVSS	low polyreactivity
QVQHVESGGGLVQAGGSLRLSCAPSGSIFRPYAMGWSRQAPGKEMELVAAISFSGAGTYYADSVKGRFTISRDNAKNTVYLQMNSLTPEDTAVYYCNARRYTTYWLLYEYDYWGQGTQVTVSS	low polyreactivity
QVQHVESGGGLVQAGGSLRLSCAPSGSTFYNNAMGWYRQAPGKERELVAAITRSGGSTYYADSVKGRFTISRDNAKNTVYLQMNSLKPEDTEVYYCNKYGYKGGVGYDYWGQGTQVTVSS	high polyreactivity
